The labels stand for the following.
T1: fluorescein-labelled monovalent stargazin peptide
T1 chain: {FITC′-TTDS}-DSLHANTANRRTTPV

B1: biotinylated Xph18 [S63K]-(GGS)12-ETWV, from pbIG (designed binder)
chain: SSVSSVPTKLEVVAATPTSLLISWDAHSRMAWVNYYRITYGETGGNSPVQEFTVPGSSSTATISGLKPGVDYTITVYANGGGFRRGMAPISINYRTLEGGSGGSGGSGGSGGSGGSGGSGGSGGSGGSGGSGGSGTETWV
modifications: biotin on the AviTag (BirA)
B2: PSD-95 PDZ domain 2 (PSD-95-2), as used for fluorescence polarisation (domain or fragment, rat)
chain: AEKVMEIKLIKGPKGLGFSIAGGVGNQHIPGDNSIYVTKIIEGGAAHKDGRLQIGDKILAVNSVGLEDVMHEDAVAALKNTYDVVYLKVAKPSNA
notes: also called PSD-95 second PDZ domain; source: E. coli, purified
B3: biotinylated Xph20 [S63K]-(GGS)12-ETWV, from pbIG (designed binder)
chain: SSVSSVPTKLEVVAATPTSLLISWDAVAKNVKVGYYRITYGETGGNSPVQEFTVPGSSSTATISGLKPGVDYTITVYANGVLSKMVLPISINYRTLEGGSGGSGGSGGSGGSGGSGGSGGSGGSGGSGGSGGSGTETWV
modifications: biotin on the AviTag (BirA)
notes: also called Xph20-ETWV; not shown: AviTag (biotin acceptor peptide), N-terminal, kept
B4: Xph20 [S63K]-(GGS)12-ETWV with N-terminal His10, from pET-IG (designed binder)
chain: B3 chain
notes: also called Xph20-ETWV; pIG-Xph20-ETWV; not shown: His10, N-terminal, kept
B5: SAP102 tandem PDZ domains 1 and 2 (SAP102-12), from pET-NO (domain or fragment, rat)
chain: FKYEEIVLERGNSGLGFSIAGGIDNPHVPDDPGIFITKIIPGGAAAMDGRLGVNDCVLRVNEVDVSEVVHSRAVEALKEAGPVVRLVVRRRQPPPETIMEVNLLKGPKGLGFSIAGGIGNQHIPGDNSIYITKIIEGGAAQKDGRLQIGDRLLAVNNTNLQDVRHEEAVASLKNTSDMVYLKVAKPGSL
notes: first two PDZ domains of rat SAP102, residues 145-333; also called NO-SAP102-12
B6: biotinylated Xph15 [S63K]-(GGS)12-ETWV, from pbIG (designed binder)
chain: SSVSSVPTKLEVVAATPTSLLISWDAGPRNVSYYRITYGETGGNSPVQEFTVPGSSSTATISGLKPGVDYTITVYASGHVSTLMTPISINYRTLEGGSGGSGGSGGSGGSGGSGGSGGSGGSGGSGGSGGSGTETWV
modifications: biotin on the AviTag (BirA)
B7: acetylated monovalent stargazin peptide (peptide)
chain: Ac-DSLHANTANRRTTPV

What all share (details): both partners purified
Assay [1] addresses T2, PSD-93 tandem PDZ domains 1 and 2 (PSD-93-12), from pET-NO (rat).
T2 construct: first two PDZ domains of rat PSD-93, residues 93-282; also called NO-PSD-93-12
Briefly: SPR; Biacore T200, single cycle kinetics at higher analyte concentrations (up to 35 µM); biotinylated Xph15/18/20-ETWV captured (ligand), tandem PDZ domains as analyte; steady state analysis, one site binding (hyperbola). A general note: In SPR one partner is held on a chip, and binding of the other changes the refractive index at the surface.

Assay [2] concerns the target T1, fluorescein-labelled monovalent …. Kind of assay: fluorescence polarisation; direct titration: 50 nM fluorescein-labelled stargazin ligand (divalent or monovalent) against increasing concentrations of PDZ domains; apparent KD. In general terms: Polarisation of emitted light reports the rotation of a fluorescent probe.
Assay [3] concerns the target T3, PSD-95 tandem PDZ domains 1 and 2 (PSD-95-12), from pET-NO (rat).
T3 construct: first two PDZ domains of rat PSD-95, residues 61-249; also called NO-PSD-95-12; not shown: His8, N-terminal, kept
Briefly: SPR; Biacore T200, single cycle kinetics; biotinylated Xph-motif fusion captured on a CAP chip (ligand), tandem PDZ domains as analyte; 25 °C; PBS with 500 mM NaCl pH 7.4, 0.1% Tween 20; global 1:1 fit (kinetics analysis).

Assay [4] concerns the target T2, PSD-93 tandem PDZ domains 1 and 2 …. Briefly: pull-down; competitive pull-down: streptavidin beads with 120 pmol biotinylated [Stg15]2, 180 pmol tandem PDZ domains, then 0-50 (100) equivalents of Xph20-ETWV or Xph0-ETWV; PBS with 500 mM NaCl pH 7.4, Tween 20, 0.5% BSA; SDS-PAGE, colloidal blue, densitometry; One site - Fit Ki.
Assay [5] deals with T4, SAP97 tandem PDZ domains 1 and 2 (SAP97-12), from pET-NO (rat).
T4 construct: first two PDZ domains of rat SAP97, residues 220-408; also called NO-SAP97-12; not shown: His8, N-terminal, kept
The description is as above.

For assay [6], the target named is B5. Described as above.
The target in assay [7] is T3, PSD-95 tandem PDZ domains 1 and 2 …. The assay is described as above.
Assay [8] has as its target B3. Kind of assay: SPR; Biacore T200, single cycle kinetics at higher analyte concentrations (up to 35 µM); biotinylated Xph15/18/20-ETWV captured (ligand), tandem PDZ domains as analyte; steady state analysis, one site binding (hyperbola).
Assay [9] addresses B6. The assay is described as above.
Assay [10] deals with B1. The description is as above.
Assay [11] concerns the target B2. Kind of assay: fluorescence polarisation; competitive titration: ETWV or stargazin monovalent peptide against the complex of 50 nM FITC monovalent stargazin peptide with 24 µM PSD-95-2.
The target in assay [12] is B2. The assay is described as above.

Primed or numbered codes have the meaning given here. Ends that are not written are not given here. FITC′ = fluorescein isothiocyanate label; TTDS = PEG linker

T2 sequence (chain, as listed by the source): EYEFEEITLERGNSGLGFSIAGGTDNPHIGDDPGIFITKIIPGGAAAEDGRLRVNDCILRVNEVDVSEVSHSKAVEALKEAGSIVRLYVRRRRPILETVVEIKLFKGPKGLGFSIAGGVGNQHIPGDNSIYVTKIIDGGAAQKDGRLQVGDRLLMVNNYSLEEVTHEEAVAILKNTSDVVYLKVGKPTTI

In assay [1], B1 came in with a Kd of 3.2 µM.

For the molecule B2, the Kd in assay [2] was found to be 16 µM.

A word on the koff: it is the first-order rate constant of dissociation. As a reminder, the kon is a measure of how fast the partners come together. As to B3, in assay [1], the Kd turned out to be 7.5 µM. In assay [3], this molecule came in with a Kd of 0.089 nM, a koff of 0.00052 s⁻¹ and a kon of 8.7e+06 M⁻¹ s⁻¹.

The Ki is a measure of affinity in units of concentration, obtained from inhibition or displacement. For B4, the Ki in [4] was 261 nM; in assay [5], 901 nM; in assay [6] it was 1440 nM; in [7], 36.5 nM.

With B5, the Kd in [8] turned out to be 9.9 µM; in [9], 9.8 µM; in assay [10], 4.2 µM.

In turn, B6 returned a Kd in assay [1] of 8.4 µM.

On to B7, for which the inhibition constant (Ki) came out at 8.8 µM in assay [11] and 8.6 µM in [12].
